Experimental findings from patent publication US10485196, “Rice plants with altered seed phenotype and quality” (THE INSTITUTE OF GENETICS AND DEVELOPMENTAL BIOLOGY CHINESE …) are described below.

Where a chain is given by its changes, count along the chain named.

Details in all cases: label: biotin 3'
Data set [1] has as its target T1, OsSPL16 (GW8) (Oryza sativa, UniProt Q6YZE8 Q6YZE8:1-455).
T1 sequence: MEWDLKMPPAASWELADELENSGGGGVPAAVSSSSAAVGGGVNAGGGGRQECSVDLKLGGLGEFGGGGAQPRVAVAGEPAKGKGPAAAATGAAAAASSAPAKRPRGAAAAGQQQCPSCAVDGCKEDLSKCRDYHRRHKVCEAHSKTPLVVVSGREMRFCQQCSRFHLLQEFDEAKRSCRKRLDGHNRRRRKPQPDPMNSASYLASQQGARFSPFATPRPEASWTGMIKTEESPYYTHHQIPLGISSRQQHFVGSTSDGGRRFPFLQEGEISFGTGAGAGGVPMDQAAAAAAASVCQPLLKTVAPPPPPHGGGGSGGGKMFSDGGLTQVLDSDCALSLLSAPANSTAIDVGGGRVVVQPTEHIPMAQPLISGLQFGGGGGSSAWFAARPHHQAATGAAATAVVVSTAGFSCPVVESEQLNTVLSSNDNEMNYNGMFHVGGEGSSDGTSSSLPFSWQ
The data set can be described thus: EMSA; competed by 10-50x cold GTAC probe; probe assignment from Table 9. On the technique in general: Mobility shift assays separate free from complexed probe on a gel.

The target of data set [2] is T1, OsSPL16 (GW8). The experiment in a line: EMSA; mutation of GTAC abolished affinity; probe assignment from Table 9. On the procedure:
FIG. 10 The DNA fragment (F8) containing two […] motifs (a) or two mutated ATAC motifs (b) was incubated with GST-OsSPL16 as indicated. Competition for OsSPL16 binding was performed with 10×, 20×, 30× and 50× cold probes containing the GTAC motif, respectively.

Data set [3] deals with T1, OsSPL16 (GW8). The data set can be described thus: EMSA; competed by 10-50x cold GTAC probe; probe assignment from Table 9. An excerpt: FIG. 4. OsSPL16 negatively regulates GW7 expression. (a) Effect of OsSPL16/GW8 on transcript abundance of GW7 in young panicles. Transcription relative to the level of NIL-GW8^HJX74 plants set to be one. Data shown as mean±s.e.m (n=3). (b) Grain size and shape formed by transgenic NIL-gw8 Basmati plants. Scale bar: 2 mm. (c) ChIP assays. The diagram depicts the putative GW7 promoter and regions of it used for ChIP-PCR analysis of extracts from young panicle of transgenic NIL-gw8 Basmati plants carrying pActin::myc-OsSPL16 construct. Data shown as mean±s.e.m (n=3). (d) EMSA assays. The GTAC motifs-containing DNA fragment (F8 shown in c) of the GW7 promoter was incubated with GST-OsSPL16 as indicated. Competition for OsSPL16 binding was performed with 10×, 20×, 30× and 50× cold probes containing the GTAC motifs, respectively. (e) OsSPL16 represses transcription of the GW7 gene promoter. Relative luciferase activity was monitored in rice protoplasts co-transfected with the different effector and reporter constructs. Mock: co-transfected with reporter constructs and an empty effector construct; negative control: co-transfected with effector construct and an empty reporter construct set to be one. Data shown as mean±s.e.m (n=3). A Student's t-test was used to generate the P values. (f) An 11 bp deletion and 18 bp insertion found in close proximity to the GTAC motifs in the GW7TFA allele. […]
The source holds these as a separate data set.

B1: GTAC motif probe (T) (dsDNA)
DNA 1: TAGTGTACGTACCTCTTAGTGTACGTACCTCTTAGTGTACGTACCTCT
DNA 2: AGAGGTACGTACACTAAGAGGTACGTACACTAAGAGGTACGTACACTA
In the case of B1, the binding result in data set [1] is listed as “binds”.

B2: mutated GTAC motif probe (Z) (dsDNA)
DNA 1: B1 DNA 1 with A7G, A11G, A23G, A27G, A39G, A43G
DNA 2: B1 DNA 2 with T6C, T10C, T22C, T26C, T38C, T42C
Regarding B2, in data set [2], the binding result is “no binding”.

B3: GW7 promoter F8 fragment probe (HJX1) (dsDNA)
DNA 1: CCATTGACACACCATACCACATCTCATCTCACGCGTCCCAAAGAAAGTGATAGTGTACGTACC
DNA 2: GGTACGTACACTATCACTTTCTTTGGGACGCGTGAGATGAGATGTGGTATGGTGTGTCAATGG
Turning to B3, the binding result in data set [3] was “binds”.
